Reference: patent publication US20230340152A1 (published 2023)

Columns and labels:
[1] = biological target: T1, Human CD73 on cells (MDA-MB-231, Jurkat CD73 knock-in, NCI-H322) (human, UniProt P21589 27-549); assay: cell-based or functional assay
T1 sequence: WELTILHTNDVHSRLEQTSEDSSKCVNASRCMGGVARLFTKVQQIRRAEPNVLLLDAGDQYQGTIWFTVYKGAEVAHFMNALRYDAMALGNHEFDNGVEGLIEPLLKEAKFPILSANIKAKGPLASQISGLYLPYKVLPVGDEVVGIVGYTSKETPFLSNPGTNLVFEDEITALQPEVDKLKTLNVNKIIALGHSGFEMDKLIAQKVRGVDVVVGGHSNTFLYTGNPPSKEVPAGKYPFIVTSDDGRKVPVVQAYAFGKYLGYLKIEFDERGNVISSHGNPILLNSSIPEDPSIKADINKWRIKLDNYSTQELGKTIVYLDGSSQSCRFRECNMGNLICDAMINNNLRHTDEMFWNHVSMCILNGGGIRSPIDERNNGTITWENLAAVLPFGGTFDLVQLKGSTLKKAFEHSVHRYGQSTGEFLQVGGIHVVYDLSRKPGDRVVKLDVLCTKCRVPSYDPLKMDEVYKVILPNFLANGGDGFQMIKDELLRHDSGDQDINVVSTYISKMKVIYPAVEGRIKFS

Human CD73 ECD [2] = biological target: T2, Human CD73 ECD (human, UniProt P21589 27-549); assay: cell-based or functional assay
T2 sequence: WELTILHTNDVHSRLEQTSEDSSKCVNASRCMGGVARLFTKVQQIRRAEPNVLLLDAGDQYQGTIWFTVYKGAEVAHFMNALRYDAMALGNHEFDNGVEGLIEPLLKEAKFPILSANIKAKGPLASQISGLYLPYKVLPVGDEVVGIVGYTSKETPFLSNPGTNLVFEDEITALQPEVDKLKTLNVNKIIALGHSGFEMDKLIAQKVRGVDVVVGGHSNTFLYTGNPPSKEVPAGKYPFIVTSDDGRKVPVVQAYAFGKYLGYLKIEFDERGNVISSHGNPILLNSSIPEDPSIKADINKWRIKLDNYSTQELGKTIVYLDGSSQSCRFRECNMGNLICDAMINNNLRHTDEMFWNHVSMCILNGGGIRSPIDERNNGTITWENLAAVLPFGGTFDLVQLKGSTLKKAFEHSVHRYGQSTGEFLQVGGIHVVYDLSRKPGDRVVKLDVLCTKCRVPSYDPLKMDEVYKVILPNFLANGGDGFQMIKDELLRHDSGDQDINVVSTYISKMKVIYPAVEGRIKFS

Cynomolgus CD73 ECD [3] = biological target: T3, Cynomolgus CD73 ECD (cynomolgus, UniProt A0A2K5V5U7 27-549); assay: SPR (Proteon)
T3 construct: extracellular domain; also called cyno CD73
T3 sequence: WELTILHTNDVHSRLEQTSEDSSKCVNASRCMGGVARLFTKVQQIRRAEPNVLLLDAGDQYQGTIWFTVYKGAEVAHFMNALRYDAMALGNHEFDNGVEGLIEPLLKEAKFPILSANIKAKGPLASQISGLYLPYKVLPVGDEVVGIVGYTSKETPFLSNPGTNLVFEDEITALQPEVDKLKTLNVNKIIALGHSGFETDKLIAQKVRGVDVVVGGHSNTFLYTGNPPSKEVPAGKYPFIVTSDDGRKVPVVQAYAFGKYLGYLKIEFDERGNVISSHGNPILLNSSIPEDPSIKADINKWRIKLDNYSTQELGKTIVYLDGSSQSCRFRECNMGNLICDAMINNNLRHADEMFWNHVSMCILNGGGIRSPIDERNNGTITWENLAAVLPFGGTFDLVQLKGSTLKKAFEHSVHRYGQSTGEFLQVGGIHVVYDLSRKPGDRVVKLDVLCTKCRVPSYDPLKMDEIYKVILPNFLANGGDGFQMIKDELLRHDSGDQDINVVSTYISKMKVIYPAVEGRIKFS

Human CD73 ECD [4] = biological target: T2, Human CD73 ECD; assay: SPR (Proteon)
Murine CD73 ECD [5] = biological target: T4, Murine CD73 ECD (murine, UniProt Q61503 29-551, limits assumed); assay: SPR (Proteon)
T4 construct: extracellular domain; In-house recombinant ECD; also called murine CD73 extracellular domain; muCD73
T4 sequence (looked up): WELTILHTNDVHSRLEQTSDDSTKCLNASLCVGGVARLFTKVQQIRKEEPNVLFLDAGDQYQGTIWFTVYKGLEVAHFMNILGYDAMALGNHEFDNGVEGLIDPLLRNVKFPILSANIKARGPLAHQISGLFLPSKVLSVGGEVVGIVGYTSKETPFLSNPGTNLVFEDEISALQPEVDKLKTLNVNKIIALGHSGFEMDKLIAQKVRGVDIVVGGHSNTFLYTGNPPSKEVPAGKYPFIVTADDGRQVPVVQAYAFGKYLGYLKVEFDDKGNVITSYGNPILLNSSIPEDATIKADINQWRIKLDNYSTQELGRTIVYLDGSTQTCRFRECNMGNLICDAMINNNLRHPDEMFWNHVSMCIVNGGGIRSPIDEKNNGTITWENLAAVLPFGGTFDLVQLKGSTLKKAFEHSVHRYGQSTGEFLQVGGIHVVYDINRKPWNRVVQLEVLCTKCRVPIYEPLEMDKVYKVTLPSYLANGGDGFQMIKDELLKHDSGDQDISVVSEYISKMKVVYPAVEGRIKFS

Cynomolgus CD73 ECD [6] = biological target: T3, Cynomolgus CD73 ECD; assay: binding assay, format not stated
Human CD73 ECD [7] = biological target: T2, Human CD73 ECD; assay: binding assay, format not stated
Murine CD73 ECD [8] = biological target: T4, Murine CD73 ECD; assay: binding assay, format not stated
[9] = biological target: T5, Cynomolgus CD73 on MK-1 cells (cynomolgus, UniProt A0A2K5V5U7 27-549); assay: flow cytometry on cells
T5 construct: whole, on cells; also called MK-1 (cyno)
T5 sequence: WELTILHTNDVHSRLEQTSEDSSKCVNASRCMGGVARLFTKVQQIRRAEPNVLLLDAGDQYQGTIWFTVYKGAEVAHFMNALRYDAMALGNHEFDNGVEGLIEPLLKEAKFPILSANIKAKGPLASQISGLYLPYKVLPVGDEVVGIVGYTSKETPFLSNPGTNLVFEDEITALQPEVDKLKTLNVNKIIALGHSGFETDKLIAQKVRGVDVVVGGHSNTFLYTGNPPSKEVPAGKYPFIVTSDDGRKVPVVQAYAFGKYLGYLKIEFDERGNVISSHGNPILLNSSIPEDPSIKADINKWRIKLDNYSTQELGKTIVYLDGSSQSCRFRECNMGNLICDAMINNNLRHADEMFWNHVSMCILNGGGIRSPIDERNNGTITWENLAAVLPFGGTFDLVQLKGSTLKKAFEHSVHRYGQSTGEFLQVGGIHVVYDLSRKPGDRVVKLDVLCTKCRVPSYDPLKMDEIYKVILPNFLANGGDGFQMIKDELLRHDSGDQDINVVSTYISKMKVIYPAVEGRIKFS

[10] = biological target: T6, Murine CD73 on cells (4T1, Jurkat mCD73 knock-in) (murine, UniProt Q61503 29-551); assay: flow cytometry on cells
T6 construct: whole, on cells; also called 4T1 (murine)
T6 sequence (looked up): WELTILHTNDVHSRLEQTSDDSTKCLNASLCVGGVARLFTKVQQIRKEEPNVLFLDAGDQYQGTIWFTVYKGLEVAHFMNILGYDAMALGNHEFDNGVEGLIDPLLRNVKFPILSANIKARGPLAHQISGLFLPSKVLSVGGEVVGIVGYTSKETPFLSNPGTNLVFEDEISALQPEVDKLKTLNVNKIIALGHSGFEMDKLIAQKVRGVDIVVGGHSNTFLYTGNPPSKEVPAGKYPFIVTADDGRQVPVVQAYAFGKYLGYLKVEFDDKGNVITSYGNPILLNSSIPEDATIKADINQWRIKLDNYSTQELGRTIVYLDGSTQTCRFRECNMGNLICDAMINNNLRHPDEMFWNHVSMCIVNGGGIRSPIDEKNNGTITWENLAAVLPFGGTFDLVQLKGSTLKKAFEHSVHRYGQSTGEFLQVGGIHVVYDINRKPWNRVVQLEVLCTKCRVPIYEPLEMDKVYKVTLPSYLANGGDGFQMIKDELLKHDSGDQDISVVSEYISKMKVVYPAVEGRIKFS

[11] = biological target: T1, Human CD73 on cells (MDA-MB-231, Jurkat …); assay: flow cytometry on cells
[12] = biological target: T6, Murine CD73 on cells (4T1, Jurkat mCD73 …); assay: cell-based or functional assay
[13] = biological target: T1, Human CD73 on cells (MDA-MB-231, Jurkat …); assay: cell-based or functional assay; remark: listed apart in the source
Murine CD73 ECD [14] = biological target: T4, Murine CD73 ECD; assay: binding to recombinant murine CD73 by flow cytometry, IgG1-TM
Human CD73 ECD [15] = biological target: T2, Human CD73 ECD; assay: binding to recombinant human CD73 by flow cytometry, IgG1-TM
[16] = biological target: T1, Human CD73 on cells (MDA-MB-231, Jurkat …); assay: flow cytometry on MDA-MB-231 cells, IgG from 293F cells
[17] = biological target: CD73 (species and format not stated); assay: binding assay not stated
Human CD73 ECD [18] = biological target: T2, Human CD73 ECD; assay: capture ELISA and direct ELISA, normalized Fab supernatants
Murine CD73 ECD [19] = biological target: T4, Murine CD73 ECD; assay: as above

B1: CD730002 (antibody, V domains shown)
VH: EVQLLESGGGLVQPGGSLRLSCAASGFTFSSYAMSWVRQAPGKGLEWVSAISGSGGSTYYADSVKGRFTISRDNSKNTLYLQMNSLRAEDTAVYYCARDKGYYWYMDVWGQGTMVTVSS
VL: QSVLTQPPSVSVSPGQTATITCSGDKVGDKYASWYQQKPGQSPVLVIYEDTKRPSRIPERFSGSNSGNTATLTISGTQALDEADYFCQAWDTSFWVFGGGTKLTVL
notes: IgG1-TM format; also called CD730002 antibody; clone 2
B1 was tested, and the “Enzyme Inhibition, MDA-MB-231, 1/EC50 (nM)” value [1] was 12 nM⁻¹, the “Internalization, MDA-MB-231, 1/EC50 (nM)” value [1] was 0.021 nM⁻¹ and the “Enzyme Inhibition, rCD73, 1/EC50 (nM)” value (Human CD73 ECD [2]) was 0.021 nM⁻¹. It also gave a Kd (Cynomolgus CD73 ECD [3]) of 0.015 nM, a Kd (Human CD73 ECD [4]) of 0.007 nM and a Kd (Murine CD73 ECD [5]) of 0.04 nM. It also gave a 1/EC50 (Cynomolgus CD73 ECD [6]) of 0.2 nM⁻¹, a 1/EC50 (Human CD73 ECD [7]) of 0.1 nM⁻¹ and a 1/EC50 (Murine CD73 ECD [8]) of 0.024 nM⁻¹. For the same binder, the Kd [9] was 0.052 nM, the Kd [10] was 0.05 nM and the Kd [11] was 0.052 nM. For the same binder, the “FabZAP internalization, EC50, 4T1” value [12] was 0.206 nM, the “FabZAP internalization, maximum toxicity, 4T1” value [12] was 83% and the “FabZAP internalization, EC50, MDA-MB-231” value [13] was 0.0071 nM. For the same binder, the “FabZAP internalization, maximum toxicity, MDA-MB-231” value [13] was 95%.

B2: CD730002 SGMY (antibody, IgG1, V domains shown)
VH: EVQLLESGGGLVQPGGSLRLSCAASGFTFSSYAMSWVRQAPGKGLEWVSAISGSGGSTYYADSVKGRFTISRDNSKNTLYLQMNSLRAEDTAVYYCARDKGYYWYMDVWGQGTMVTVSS
VL: QSVLTQPPSVSVSPGQTASITCSGDKVGDKYASWYQQKPGQSPVLVIYEDTKRPSGIPERFSGSNSGNTATLTISGTQAMDEADYYCQAWDTSFWVFGGGTKLTVL
notes: IgG1-TM; non-germlined VH, fully germlined VL (S20, G57, M81, Y87); also called Clone 2 SGMY
B2: binds (Murine CD73 ECD [14]); binds (Human CD73 ECD [15]).

B3: CD730002 2C5 (antibody, V domains shown)
VH: EVQLLESGGGLVQPGGSLRLSCAASGFTFSSYAMSWVRQAPGKGLEWVSAISGSGGSTYYADSVKRRFTISRDNSKNTLYLQMNSLRAEDTAVYYCARDKGYYWYMDVWGQGTMVTVSS
VL: QSVLTQPPSVSVSPGQTASITCSGDKVGDKYASWYQQKPGQSPVLVIYEDTKRLSGIPERFSGSNSGNTATLTISGTQAMDEADYYCQAWDTSFWVFGGGTKLTVL
notes: IgG1-TM format; also called clone 2C5 antibody
In the case of B3, the Kd (Cynomolgus CD73 ECD [3]) is reported as 0.009 nM, the Kd (Human CD73 ECD [4]) is reported as 0.009 nM and the Kd (Murine CD73 ECD [5]) is reported as 0.022 nM. It also gave a Kd [9] of 0.063 nM, a Kd [10] of 0.055 nM and a Kd [11] of 0.084 nM. For the same binder, the “fold lower EC50 than parental CD730002SGMY” value [16] was 3 fold, the “FabZAP internalization, EC50, 4T1” value [12] was 0.173 nM and the “FabZAP internalization, maximum toxicity, 4T1” value [12] was 82%. For the same binder, the “FabZAP internalization, EC50, MDA-MB-231” value [13] was 0.0091 nM and the “FabZAP internalization, maximum toxicity, MDA-MB-231” value [13] was 98%.

B4: CD730010 (antibody, V domains shown)
VH: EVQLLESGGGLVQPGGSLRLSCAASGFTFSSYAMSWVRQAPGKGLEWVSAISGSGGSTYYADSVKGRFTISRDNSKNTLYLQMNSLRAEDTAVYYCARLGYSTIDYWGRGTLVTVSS
VL: LPVLTQPPSVSGTPGQRVTISCSGSLSNIGRNPVNWYKQVPGTAPKLLIYLNNQRPSGVPDRFSGSKSGTSASLAISGLQSEDEADYYCATWDDSLNGWLFGGGTKLTVL
notes: IgG1-TM format (L234F, L235E, P331S); also called CD730010 antibody; clone 10
For B4, the “Enzyme Inhibition, MDA-MB-231, 1/EC50 (nM)” value [1] was 0.33 nM⁻¹, the “Internalization, MDA-MB-231, 1/EC50 (nM)” value [1] was 0.0062 nM⁻¹ and the “Enzyme Inhibition, rCD73, 1/EC50 (nM)” value (Human CD73 ECD [2]) was 0.0062 nM⁻¹. For the same binder, the Kd (Cynomolgus CD73 ECD [3]) was 1.92 nM, the Kd (Human CD73 ECD [4]) was 3.58 nM and the Kd (Murine CD73 ECD [5]) was 2.47 nM. For the same binder, the EC50 [17] was 69 nM, the 1/EC50 (Cynomolgus CD73 ECD [6]) was 0.0033 nM⁻¹ and the 1/EC50 (Human CD73 ECD [7]) was 0.0034 nM⁻¹. For the same binder, the 1/EC50 (Murine CD73 ECD [8]) was 0.0024 nM⁻¹, the Kd [10] was 6.1 nM and the Kd [11] was 8 nM.

B5: Clone D3 Fab (Fab, V domains shown)
VH: EVQLLESGGGLVQPGGSLRLSCAASGFTFSSYAYSWVRQAPGKGLEWVSAISGSGGRTYYADSVKGRFTISRDNSKNTLYLQMNSLRAEDTAVYYCARLGYSTIDLWGRGTLVTVSS
VL: QSVLTQPPSASGTPGQRVTISCSGSLSNIGRNPVNWYQQLPGTAPKLLIYLDNLRLSGVPDRFSGSKSGTSASLAISGLQSEDEADYYCATWDDSLIGWLFGGGTKLTVL
notes: Bacterial Fab from the combinatorial library
B5: binds (Human CD73 ECD [18]); binds (Murine CD73 ECD [19]).
